Common to all, as to assay: BLI
For orientation: BLI is a label-free optical method that tracks binding on a fibre tip over time.

Experiment [1] addresses Pup^E (prokaryotic ubiquitin-like protein Pup with its C-terminal glutamine converted to glutamate), biotinylated (M. tuberculosis) (UniProt P9WHN5).
Experiment [2] deals with T1, M. tuberculosis PafA (Pup ligase), wild type (M. tuberculosis H37Rv, UniProt P9WNU7 1-452).
T1 sequence: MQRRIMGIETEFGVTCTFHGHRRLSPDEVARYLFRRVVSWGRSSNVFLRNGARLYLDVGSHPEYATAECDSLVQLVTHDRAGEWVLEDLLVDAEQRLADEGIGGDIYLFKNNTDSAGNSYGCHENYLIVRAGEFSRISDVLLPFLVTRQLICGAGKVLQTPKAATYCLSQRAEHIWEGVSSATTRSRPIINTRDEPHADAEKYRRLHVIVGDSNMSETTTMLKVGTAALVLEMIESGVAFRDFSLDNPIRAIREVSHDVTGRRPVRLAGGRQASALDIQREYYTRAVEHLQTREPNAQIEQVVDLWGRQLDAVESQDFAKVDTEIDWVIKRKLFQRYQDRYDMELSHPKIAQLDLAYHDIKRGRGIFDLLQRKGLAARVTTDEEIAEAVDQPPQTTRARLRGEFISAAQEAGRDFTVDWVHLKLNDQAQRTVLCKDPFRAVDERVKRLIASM

The target in experiment [3] is T2, M. tuberculosis PafA S119A (M. tuberculosis H37Rv, UniProt P9WNU7 1-452, S119A).
T2 sequence: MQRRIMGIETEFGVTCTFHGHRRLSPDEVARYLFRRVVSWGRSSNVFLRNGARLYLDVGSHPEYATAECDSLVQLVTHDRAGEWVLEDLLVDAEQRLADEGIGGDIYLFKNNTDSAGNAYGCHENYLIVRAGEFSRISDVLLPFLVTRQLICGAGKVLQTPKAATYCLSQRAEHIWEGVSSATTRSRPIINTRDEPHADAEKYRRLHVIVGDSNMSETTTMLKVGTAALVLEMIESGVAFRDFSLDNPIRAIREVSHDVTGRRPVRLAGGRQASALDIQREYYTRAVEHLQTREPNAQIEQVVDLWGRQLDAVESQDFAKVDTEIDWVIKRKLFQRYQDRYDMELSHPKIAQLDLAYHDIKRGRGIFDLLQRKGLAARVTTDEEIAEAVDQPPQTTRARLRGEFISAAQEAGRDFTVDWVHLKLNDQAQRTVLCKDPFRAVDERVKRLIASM

We go through 2 molecules from PMC5952411 (EBioMedicine, 2018).

In experiment [1], “M. tuberculosis PafA pre-incubated with AEBSF (AEBSF covalently bound at S119) (from UniProt P9WNU7 1-452) (enzyme)” returned a fold KD against WT PafA of 2 fold.

B1: Pup^E (prokaryotic ubiquitin-like protein Pup with its C-terminal glutamine converted to glutamate), biotinylated (natural protein)
chain: MAQEQTKRGGGGGDDDDIAGSTAAGQERREKLTEETDDLLDEIDDVLEENAEDFVRAYVQKGGE
modifications: biotinylated with EZLink Sulfo-NHS-LC-Biotin (sites not given)
With B1, the binding result in experiment [2] and in experiment [3] was “binds” throughout.
